We go through 1 protein from article PMC13583000 (Nature Communications, 2026).

The data set deals with the molecule itself. Put plainly: SEC. Background: Size exclusion chromatography separates by hydrodynamic size, large species first.

B1: Corynebacterium glutamicum citrate synthase with a C-terminal Strep tag (CgCS-Strep) (enzyme)
chain: MFERDIVATDNNKAVLHYPGGEFEMDIIEASEGNNGVVLGKMLSETGLITFDPGYVSTGSTESKITYIDGDAGILRYRGYDIADLAENATFNEVSYLLINGELPTPDELHKFNDEIRHHTLLDEDFKSQFNVFPRDAHPMATLASSVNILSTYYQDQLNPLDEAQLDKATVRLMAKVPMLAAYAHRARKGAPYMYPDNSLNARENFLRMMFGYPTEPYEIDPIMVKALDKLLILHADHEQNCSTSTVRMIGSAQANMFVSIAGGINALSGPLHGGANQAVLEMLEDIKSNHGGDATEFMNKVKNKEDGVRLMGFGHRVYKNYDPRAAIVKETAHEILEHLGGDDLLDLAIKLEEIALADDYFISRKLYPNVDFYTGLIYRAMGFPTDFFTVLFAIGRLPGWIAHYREQLGAAGNKINRPRQVYTGNESRKLVPREER
As for B1, the “stoichiometry N” value was 2.

One may read the stoichiometry N as a count of units in the complex or per binding partner.
